The text below walks through data of US20060110777A1 (Genentech, published 2006).

“And” between values parts separate entries of the source, which are not always exact repeats. Identical values can stand only once. Positions of bridges follow the written chain, without caps; N, C: chain ends. No end group written: not given here.

The target of this assay is T1, BAFF (UniProt Q9Y275 134-285, limits assumed).
T1 construct: Coated on ELISA plates at 2 ug/ml; The construct is not described; also called BLyS; TALL-1
T1 sequence (Q9Y275 134-285 limits assumed): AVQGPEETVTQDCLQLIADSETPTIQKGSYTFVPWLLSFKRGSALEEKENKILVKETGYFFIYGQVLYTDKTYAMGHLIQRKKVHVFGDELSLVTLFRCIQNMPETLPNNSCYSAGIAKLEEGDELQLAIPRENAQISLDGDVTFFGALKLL
Nature of the assay: competitive displacement ELISA, BAFF coated, biotinylated miniBR3 as tracer. On the procedure:
FIGS. 16A-16B depict binding of BR3 variants to BAFF. (A) Competitive displacement of biotinylated miniBR3 measured by ELISA (see methods). Data are shown for BR3 extracellular domain (filled triangles), miniBR3 (open squares), and bhpBR3 (filled circles). IC₅₀ values from the fitted curves are 70 nM, 65 nM, and 15 μM, respectively. (B) HeLa cells expressing a chimeric receptor composed of the extracellular ligand-binding domain of BR3 fused to the death domain of DR4 were seeded 16 hr before treatment. BAFF (2 nM) was added to cells alone or after being preincubated with miniBR3 (3 μM), bhpBR3 (100 μM) or a control hairpin peptide with an unrelated turn sequence in the same bhp scaffold (bhpC, 100 μM) for 30 min at room temperature. Apoptosis was assessed 24 hr later. […]
Nunc Maxisorp 96-well plates were coated overnight at 4° C. with 100 μl of a 2 μg/ml solution of BAFF in carbonate buffer, pH 9.6. […] The reaction was quenched with 100 μl/well 1M H₃PO₄ and the plate read at 490 nm. IC₅₀ values were determined by a four-parameter fit of the competitive displacement ELISA signal. The concentrations of initial stock solutions of bhpBR3 were determined spectrophotometrically as described (Gill and von Hippel, (1989) Anal. Biochem. 182:319-326), while those of miniBR3 and BR3 extracellular domain were determined by quantitative amino acid analysis.

B1: miniBR3 (peptide)
peptide: TPCVPAECFDLLVRHCVACGLLRTPR-NH2
modifications: disulfide 3-16, 8-19
notes: Synthetic peptide with the 1:3, 2:4 disulfide-bonding pattern; also called 26-residue miniBR3 peptide; the larger core domain
On to B1, for which the IC50 is 65 nM and ~70 nM.

B2: bhpBR3 (peptide)
peptide: CHWDLLVRHWVC-NH2
modifications: disulfide 1-12 (inferred)
notes: BR3 residues 26-31 (DLLVRH) embedded in the disulfide-bonded beta-hairpin (bhp) scaffold; also called the 12-residue peptide; turn peptide bhpBR3
For B2, the IC50 amounted to 15000 nM.
